One assay concerns LLC-PK1 cells. Briefly: cAMP production in LLC-PK1 cells by bovine or canine CRSP. It counts as cell-based, pig. As to conditions: 10 minutes, IBMX. How it is done: Further, with regard to the peptides of the present invention identified in cow and dog (bovine CRSP and canine CRSP), cAMP productivity of CRSP using LLC-PK1 cells by the same manner as above was investigated.
LLC-PK1 cells were incubated in a culture medium (a Dulbecco-modified Eagle medium (DMEM) containing 10% of fetal bovine serum). After two days, the cells were washed twice with a DMEM containing 0.05% of bovine serum albumin, the medium in the incubation dish was substituted with a DMEM containing 0.5 mM of 3-isobutyl-1-methylxanthine and 0.05% of bovine serum albumin (DMEM/BSA/IBMX) and incubation was conducted at 37° C. for 30 minutes. After the incubation, the medium was substituted with a DMEM/BSA/IBMX in which CRSP was dissolved so as to make it 0 M and 10^−12 to 10^−6 M and incubation was conducted at 37° C. for 10 minutes. After the incubation, the medium in the incubating dish was removed, ethanol was added thereto and the incubating dish was once frozen in a freezer for the cell lysis. […] After that, 100 μl of 1% γ-globulin and 500 μl of 25% polyethylene glycol were added, the mixture was well mixed and centrifuged and radioactivity of the precipitate was measured using a gamma-counter and compared with radioactivity of the standard curve prepared by cAMP of known concentrations whereupon the amount of cAMP was quantified.
A general note: Cyclic AMP is a second messenger, typically raised through Gs and lowered through Gi signalling.

Assay [1] concerns the target T1, Pig calcitonin receptor (CTR) (Sus scrofa, UniProt P25117).
T1 construct: expressed in transfected cells; host or cells: COS-7 (given as rhesus monkey renal cells), vector pcDNA 3.1
T1 sequence (P25117 30-498): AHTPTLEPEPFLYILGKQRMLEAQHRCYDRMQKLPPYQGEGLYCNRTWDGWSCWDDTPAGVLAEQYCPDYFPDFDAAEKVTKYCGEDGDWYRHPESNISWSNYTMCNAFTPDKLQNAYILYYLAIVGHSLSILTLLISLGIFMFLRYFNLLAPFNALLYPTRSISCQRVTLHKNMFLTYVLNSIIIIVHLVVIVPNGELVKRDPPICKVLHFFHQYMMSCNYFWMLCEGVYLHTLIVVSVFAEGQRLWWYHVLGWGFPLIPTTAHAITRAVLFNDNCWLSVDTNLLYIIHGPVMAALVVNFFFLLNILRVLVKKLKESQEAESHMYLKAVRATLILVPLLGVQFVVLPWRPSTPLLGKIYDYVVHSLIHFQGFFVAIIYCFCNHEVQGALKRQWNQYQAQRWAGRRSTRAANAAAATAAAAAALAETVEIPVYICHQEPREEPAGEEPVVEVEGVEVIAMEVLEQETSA
Briefly: cAMP production in COS-7 cells expressing pig calcitonin receptor. Format: cell-based. The note with it: CTR expressed in COS-7. How it is done:
Pig calcitonin receptor (CTR) was introduced into a mammalian expression vector pcDNA 3.1, expressed in rhesus monkey renal cells (COS-7) and production amount of cAMP by stimulation of CRSP was measured by radioimmunoassay. Similarly, CTR was expressed in opossum renal cells (OK cells) and production amount of cAMP by stimulation of CRSP was measured by radioimmunoassay while incorporation of sodium ion was measured by measuring the incorporation of sodium chloride having radioactivity (^22Na) by a gamma-counter.
Pig calcitonin receptor (CTR) was introduced into mammalian expression vector pcDNA 3.1 and then expressed in rhesus monkey renal cells (COS-7) whereupon production amount of cAMP by CRSP stimulation was measured by radioimmunoassay.
Pig calcitonin receptor (CTR) was introduced into a mammalian expression vector pcDNA 3.1 and expressed in rhesus monkey renal cells (COS-7) and production amount of cAMP by CRSP stimulation was measured by radioimmunoassay.
Pig calcitonin receptor (CTR) was introduced into a mammalian expression vector pcDNA 3.1, then expressed in rhesus monkey renal cells (COS-7) and production amount of cAMP by CRSP or CRSP-Gly stimulation was measured-by radioimmunoassay.

Assay [2] concerns the target T2, pig calcitonin receptor (CTR) (pig, UniProt P25117).
T2 sequence: T1 sequence (P25117 30-498)
Briefly: cell-based or functional assay.

Bridges are numbered along the chain shown (N, C = ends). Where no end group is shown, it is not given here.

On to “ACNTATCMTHRLAGWLSRSGSMVRSNLLPTKMGFKIFNGP-OH (not fully specified (bridges); printed as ACNTATCMTHRLAGWLSRSGSMVRSNLLPTKMGFKIFNGP-OH; cysteine pairing not given here; listed as Bos sp.) [bovine CRSP]”, for which the “cAMP productivity compared with pig CRSP” value in the assay on LLC-PK1 cells is recorded as “nearly the same result as in the case of pig CRSP”. “SCNSATCVAHWLGGLLSRAGSVANTNLLPTSMGFKVYN-OH (not fully specified (bridges); printed as SCNSATCVAHWLGGLLSRAGSVANTNLLPTSMGFKVYN-OH; cysteine pairing not given here; listed as Canis sp.) [canine CRSP]”: in the assay on LLC-PK1 cells, the “cAMP productivity compared with pig CRSP” value is listed as “nearly the same result as in the case of pig CRSP”. As for “Ser-Cys-Asn-Thr-Ala-Thr-Cys-Met-Thr-His-Arg-Leu-Val-Gly-Leu-Leu-Ser-Arg-Ser-Gly-Ser-Met-Val-Arg-Ser-Asn-Leu-Leu-Pro-Thr-Lys-Met-Gly-Phe-Lys-Val-Phe-Gly-Gly-OH (SCNTATCMTHRLVGLLSRSGSMVRSNLLPTKMGFKVFGG-OH; not fully specified (bridges); printed as Ser-Cys-Asn-Thr-Ala-Thr-Cys-Met-Thr-His-Arg-Leu-Val-Gly-Leu-Leu-Ser-Arg-Ser-Gly-Ser-Met-Val-Arg-Ser-Asn-Leu-Leu-Pro-Thr-Lys-Met-Gly-Phe-Lys-Val-Phe-Gly-Gly-OH; cysteine pairing not given here; listed as Sus sp.) [CRSP-Gly]”, in assay [1], the “cAMP productivity, CRSP compared with CRSP-Gly” value was “nearly the same cAMP productivity”.

B1: pig calcitonin receptor-stimulating peptide (CRSP) (peptide)
peptide: SCNTATCMTHRLVGLLSRSGSMVRSNLLPTKMGFKVFG-NH2
modifications: disulfide 2-7; N-terminus assumed
SMILES: CSCC[C@H](NC(=O)[C@H](CCCCN)NC(=O)[C@@H](NC(=O)[C@@H]1CCCN1C(=O)[C@H](CC(C)C)NC(=O)[C@H](CC(C)C)NC(=O)[C@H](CC(N)=O)NC(=O)[C@H](CO)NC(=O)[C@H](CCCNC(=N)N)NC(=O)[C@@H](NC(=O)[C@H](CCSC)NC(=O)[C@H](CO)NC(=O)CNC(=O)[C@H](CO)NC(=O)[C@H](CCCNC(=N)N)NC(=O)[C@H](CO)NC(=O)[C@H](CC(C)C)NC(=O)[C@H](CC(C)C)NC(=O)CNC(=O)[C@@H](NC(=O)[C@H](CC(C)C)NC(=O)[C@H](CCCNC(=N)N)NC(=O)[C@H](Cc1c[nH]cn1)NC(=O)[C@@H](NC(=O)[C@H](CCSC)NC(=O)[C@@H]1CSSC[C@H](NC(=O)[C@@H](N)CO)C(=O)N[C@@H](CC(N)=O)C(=O)N[C@@H]([C@@H](C)O)C(=O)N[C@@H](C)C(=O)N[C@@H]([C@@H](C)O)C(=O)N1)[C@@H](C)O)C(C)C)C(C)C)[C@@H](C)O)C(=O)NCC(=O)N[C@@H](Cc1ccccc1)C(=O)N[C@@H](CCCCN)C(=O)N[C@H](C(=O)N[C@@H](Cc1ccccc1)C(=O)NCC(N)=O)C(C)C
For B1, in assay [2], the “cAMP-producing activity relative to pig CGRP, LLC-PK1 cells” value was about 40 fold; the “cAMP-producing activity relative to pig calcitonin, COS-7 cells expressing pig CTR” value was about 350 fold; the “cAMP-producing activity relative to pig calcitonin, LLC-PK1 cells” value was about 6 fold.

Values taken from patent US20050256302A1, “Novel peptides having camp producing activity” (Japan Science and Technology Agency, priority 2002, published 2005).
